Results as given in patent US7642046B2, “Method for monitoring recruitment of proteins to the intracellular domain of a receptor in intact cells” (priority 2001, dated 2010).

Key:
Format in all cases: cell-based
CD40 mutants [1] = target: T1, CD40 mutants (Homo sapiens, UniProt P25942, E235A); experiment: Recruitment assay in intact cells with CD40 mutants (deletions or point mutations in TRAF binding sites); settings: E235A plus deletion of PXQXT254 motif
T1 construct: expressed in transfected cells; host or cells: 293T
T1 sequence (P25942 21-245 E235A): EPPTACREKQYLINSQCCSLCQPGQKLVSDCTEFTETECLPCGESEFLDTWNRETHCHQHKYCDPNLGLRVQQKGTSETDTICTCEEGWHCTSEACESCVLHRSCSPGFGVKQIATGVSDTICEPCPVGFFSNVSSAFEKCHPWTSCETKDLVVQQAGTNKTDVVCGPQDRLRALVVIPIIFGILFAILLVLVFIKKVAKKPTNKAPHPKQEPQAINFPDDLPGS
Protocol: (§1) The lysates were cleared by centrifugation at 15000 G at 4° C. in a micro-centrifuge, 3 fold serially diluted (with lysis buffer containing 1% bovine serum albumin) and then every diluted sample incubated for 2 hours at room temperature (or overnight) in wells of ELISA microtiter plates coated with a mAb (Ro1) specific to the CD40 extra-cellular domain (Schwabe et al. 1997). For control purposes, instead of the wild type CD40 plasmid, a plasmid encoding a CD40 mutant lacking the entire signaling domain was used for transfection and transient expression (CD401-222, FIG. 1B). Following incubation exhaustive washes were carried out on the microtiter plates to remove any unbound protein [about 10 washing steps with PBS containing 0.05% Tween 20) PBS/Tween)]. To detect bound TRAF1, anti TRAF1 specific antibodies were loaded into the plates, incubated for about 3 hours at room temperature, […] by extensive washes to remove unbound antibody and detecting the bound antibody with an HRP conjugated secondary antibody. All antibodies (except when used as solid phase antibody) were diluted in PBS/Tween containing 1% BSA.
(§2) The recruitment of TRAF to CD40 can be quantitatively measured using the assay described in example 1. For that purpose, the assay conditions were adjusted in such a way that TRAF expression was in significant excess over the expression of CD40. This was the case when the TRAF expression plasmid was used at a two to three fold excess over the CD40 expression plasmid. The CD40 bound TRAF concentration was measured as described in example 1. A reference extract containing CD40/TRAF complexes served as a standard in each assay. This standard extract consisted of a large pool extract from cells that had been co-transfected with the plasmids encoding CD40/TRAF1, CD40/TRAF2, CD40/TRAF3, CD40/TRAF5 and CD40/TRAF6. The extracts were tested for the presence of CD40/TRAF complexes and the complex concentrations in each extract were arbitrarily defined as 1000 U/ml. The extracts were frozen in small aliquots and kept at −80° C. until further use. By comparing unknown samples to these extracts, it was possible to determine the relative CD40-TRAF complex concentrations in arbitrary units. The necessary normalization for sample-to-sample variations in the CD40 expression was calculated with the following formula: […]
(§3) The quantitative version of the TRAF recruitment assay as described in example 3 was used to compare CD40 and various CD40 mutants with respect to their TRAF recruitment behaviour. TRAF 1, 2, 3, 5 and 6 were examined. […] Additional deletion of the TRAF1/2/3/5 binding motif PXQXT254 at amino acid position 250 to 254 reduced the binding of all 5 TRAFs test to background levels (1-254EA in FIG. 3B). […]

p75TNFR = target: T2, p75TNFR (Homo sapiens, UniProt P20333+P25942); experiment: Recruitment assay with hybrid receptor (CD40 extracellular domain, p75TNFR transmembrane and intracellular domain); settings: 293T cells, CD40 as relative standard
T2 construct: cDNA fragments encoding for the transmembrane and cytoplasmic domains of the LTβR, TACI, the p75TNF receptor, CD27; expressed in transfected cells; host or cells: 293T
T2 sequence (P25942+P20333 fused): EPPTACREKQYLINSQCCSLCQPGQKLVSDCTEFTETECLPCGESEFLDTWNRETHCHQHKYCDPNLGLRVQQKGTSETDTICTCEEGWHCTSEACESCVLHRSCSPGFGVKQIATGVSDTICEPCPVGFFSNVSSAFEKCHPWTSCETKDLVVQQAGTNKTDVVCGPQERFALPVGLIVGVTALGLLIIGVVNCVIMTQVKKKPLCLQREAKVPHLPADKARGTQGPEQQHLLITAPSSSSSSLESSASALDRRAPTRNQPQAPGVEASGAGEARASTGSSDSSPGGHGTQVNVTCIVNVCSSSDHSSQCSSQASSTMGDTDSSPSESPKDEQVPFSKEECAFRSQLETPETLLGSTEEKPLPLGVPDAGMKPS
Protocol: as §2, with “By comparing unknown samples to these extracts, it was possible to determine the relative CD40-TRAF complex concentrations in arbitrary units.” left out
Recruitment of various TRAFs to receptors different to CD40, was tested by the recruitment assay described in example 1 by transforming cells with expression plasmids encoding hybrids receptors comprising the extracellular domain of CD40 and transmembrane and intracellular domain of anyone of the following receptors: BCMA (Madry et al. 1998 and Hatzoglou et al. 2000) the LTβR-receptor (Mosialos et al. 1995, Crowe et al. 1994, Nakano et al. 1996), TACI (von Bulow et al. 1997, Xia et al. 2000) the p75TNFR (Rothe et al. 1994) and the CD27 (Gravestein et al. 1998, Akiba et al. 1998) (for details of constructs see example 7). Measurement of TRAF recruitment to the signalling domains of BCMA the LTβR-receptor TACI the p75TNFR or the CD27 was carried out by co-transfecting 293T cells with a plasmid encoding anyone of the above hybrid receptors together with a plasmid encoding TRAF and measurement of the TRAF/Receptor complex using the ELISA sandwich described in example 1 and the quantitation as described in example 3. […]

CD40 mutants [2] = target: T3, CD40 mutants (Homo sapiens, UniProt P25942); experiment: Recruitment assay in intact cells with CD40 mutants (deletions or point mutations in TRAF binding sites); settings: CD40-222 (CD40 1-222) control, 293T cells
T3 construct: expressed in transfected cells; host or cells: 293T
T3 sequence (P25942 21-222, stated change not applied): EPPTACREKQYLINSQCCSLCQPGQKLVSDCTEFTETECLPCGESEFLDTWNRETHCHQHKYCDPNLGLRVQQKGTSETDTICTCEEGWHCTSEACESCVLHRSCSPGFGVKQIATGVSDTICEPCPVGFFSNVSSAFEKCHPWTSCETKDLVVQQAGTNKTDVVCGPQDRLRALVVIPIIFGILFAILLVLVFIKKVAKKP
Protocol: as §1, §2, §3

| Molecule | binding to CD40 mutant 1-254EA (CD40 mutants [1]) | recruitment to p75TNFR, folds higher than recruitment to CD40 (p75TNFR) | recruitment to signalling-domain-deficient CD40 mutant (CD40 mutants [2]) |
| --- | --- | --- | --- |
| TRAF2: TNF receptor associated factor 2, human adaptor protein expressed from pcDNA3 (protein, UniProt Q12933 1-501, looked up, full-length, TNF receptor associated factor 2, human adaptor protein expressed from pcDNA3) MAAASVTPPGSLELLQPGFSKTLLGTKLEAKYLCSACRNVLRRPFQAQCGHRYCSFCLASILSSGPQNCAACVHEGIYEEGISILESSSAFPDNAARREVESLPAVCPSDGCTWKGTLKEYESCHEGRCPLMLTECPACKGLVRLGEKERHLEHECPERSLSCRHCRAPCCGADVKAHHEVCPKFPLTCDGCGKKKIPREKFQDHVKTCGKCRVPCRFHAIGCLETVEGEKQQEHEVQWLREHLAMLLSSVLEAKPLLGDQSHAGSELLQRCESLEKKTATFENIVCVLNREVERVAMTAEACSRQHRLDQDKIEALSSKVQQLERSIGLKDLAMADLEQKVLEMEASTYDGVFIWKISDFARKRQEAVAGRIPAIFSPAFYTSRYGYKMCLRIYLNGDGTGRGTHLSLFFVVMKGPNDALLRWPFNQKVTLMLLDQNNREHVIDAFRPDVTSSSFQRPVNDMNIASGCPLFCPVSKMEAKNSYVRDDAIFIKAIVDLTGL | did not bind | about 60 fold | – |
| TRAF1: TNF receptor associated factor 1, adaptor protein overexpressed in 293T cells from pcDNA3 (protein, UniProt Q13077 1-416, looked up, full-length, TNF receptor associated factor 1, adaptor protein overexpressed in 293T cells from pcDNA3) MASSSGSSPRPAPDENEFPFGCPPTVCQDPKEPRALCCAGCLSENPRNGEDQICPKCRGEDLQSISPGSRLRTQEKAHPEVAEAGIGCPFAGVGCSFKGSPQSVQEHEVTSQTSHLNLLLGFMKQWKARLGCGLESGPMALEQNLSDLQLQAAVEVAGDLEVDCYRAPCSESQEELALQHFMKEKLLAELEGKLRVFENIVAVLNKEVEASHLALATSIHQSQLDRERILSLEQRVVELQQTLAQKDQALGKLEQSLRLMEEASFDGTFLWKITNVTRRCHESACGRTVSLFSPAFYTAKYGYKLCLRLYLNGDGTGKRTHLSLFIVIMRGEYDALLPWPFRNKVTFMLLDQNNREHAIDAFRPDLSSASFQRPQSETNVASGCPLFFPLSKLQSPKHAYVKDDTMFLKCIVETST | – | 25 fold | undetectable |
